# PMC4176334
# Molecular target: M. tuberculosis RNAP core;SigB;RbpA (Mycobacterium …, UniProt P9WGZ1;P9WGY9;P9WGY7;P9WGY5;P9WGI5;P9WHJ5 1-347;1-1178;1-1316;1-110;1-323;1-111, ||)
# Test: EMSA
binder,measurement,value
galP1AA (dsDNA) DNA 1: GTTTATTCCATGTCACACTTTTCGCATCTTTTCGTTGCTATAATTATTTCATACCAAAAGCCTAATGGAGCG DNA 2: CGCTCCATTAGGCTTTTGGTATGAAATAATTATAGCAACGAAAAGATGCGAAAAGTGTGACATGGAATAAAC,binding result,binds
